{"source": "patent US20110300138A1", "about": "(published 2011)", "molecules": {"B1": {"name": "5C9 IgG (antibody, from another filing, V domains shown)", "VH": "EVQLVESGGGLIQPGGSLRLSCAASGFTVSSNYMSWVRQAPGKGLEWVSVTYSGGSTSYADSVKGRFTISRDNSKNTLYLQMNSLRAEDTAVYYCARGGRYCSSISCYARSGCDYWGQGTLVTVSS", "VL": "AIQMTQSPSSLSASVGDRVTITCRASQSISNYLNWYQQKPGKAPKLLIYAASSLQSGVPSRFSGSGSGTDFTLTISSLQPEDFATYYCQQSYSSPSTTFGQGTKLEIK"}}, "key": {"[1]": {"molecular_target": "human TSH receptor (full length) coated on ELISA plate wells (human) (UniProt P16473)", "assay": "TSH-biotin binding inhibition ELISA, TSHR coated wells; 0.003 µg/mL in assay buffer + 100 µg/mL 5B3 IgG"}, "[2]": {"molecular_target": "TSHR with Trp258 mutated to Ala, expressed in CHO cells (human) (UniProt P16473)", "assay": "cell-based or functional assay"}, "[3]": {"molecular_target": "wild type TSHR (human TSH receptor) expressed in CHO cells (human) (UniProt P16473)", "assay": "cell-based or functional assay"}, "[4]": {"molecular_target": "TSH receptor (TSHR), full length human, coated on tubes (human) (UniProt P16473)", "assay": "inhibition of 125I-TSH binding to TSHR coated tubes; 100 µg/mL, diluted in HBD serum pool"}, "[5]": {"molecular_target": "human TSH receptor (full length) coated on ELISA plate wells (human) (UniProt P16473)", "assay": "TSH-biotin binding inhibition ELISA, TSHR coated wells; 10 µg/mL in assay buffer; negative control MAb"}, "[6]": {"molecular_target": "human TSH receptor (full length) coated on ELISA plate wells (human) (UniProt P16473)", "assay": "TSH-biotin binding inhibition ELISA, TSHR coated wells; 0.1 µg/mL in HBD serum pool; negative control MAb"}, "[7]": {"molecular_target": "TSHR (full length) coated on tubes (human) (UniProt P16473)", "assay": "inhibition of 125I-K1-18 Fab (competitor) binding to TSHR coated tubes; negative control 100 µg/mL in assay buffer"}, "[8]": {"molecular_target": "TSH receptor (TSHR), full length human, coated on tubes (human) (UniProt P16473)", "assay": "inhibition of 125I-K1-18 IgG binding to TSHR coated tubes; competitor 125I-K1-18 IgG; negative control sample at 1 µg/mL in assay buffer"}, "[9]": {"molecular_target": "TSH receptor (TSHR), full length human, coated on tubes (human) (UniProt P16473)", "assay": "inhibition of 125I-K1-18 IgG binding to TSHR coated tubes; competitor 125I-K1-18 IgG; negative control sample at 10 µg/mL in HBD serum; mean of duplicate"}, "[10]": {"molecular_target": "TSHR (thyroid stimulating hormone receptor), full length human (human) (UniProt P16473)", "assay": "competitor ^125I-K1-70 IgG, TSHR coated tubes; 10 µg/mL in HBD"}, "[11]": {"molecular_target": "TSHR (thyroid stimulating hormone receptor), full length human (human) (UniProt P16473)", "assay": "competitor ^125I-K1-70 IgG, TSHR coated tubes; 1 µg/mL in assay buffer"}, "[12]": {"molecular_target": "thyroid stimulating hormone receptor (TSHR), full length human TSHR (human) (UniProt P16473)", "assay": "TSH-biotin competition ELISA, TSHR coated wells; 0.01 µg/mL in assay buffer"}, "[13]": {"molecular_target": "TSHR (full length) coated on tubes (human) (UniProt P16473)", "assay": "inhibition of 125I-K1-18 Fab (competitor) binding to TSHR coated tubes; test sample 100 µg/mL in HBD serum"}, "[14]": {"molecular_target": "TSHR (full length) coated on tubes (human) (UniProt P16473)", "assay": "inhibition of 125I-K1-18 Fab (competitor) binding to TSHR coated tubes; test sample 1 µg/mL in assay buffer"}, "[15]": {"molecular_target": "TSH receptor (TSHR), full length human, coated on tubes (human) (UniProt P16473)", "assay": "inhibition of 125I-K1-18 IgG binding to TSHR coated tubes; competitor 125I-K1-18 IgG; sample at 0.1 µg/mL in HBD serum"}, "[16]": {"molecular_target": "TSH receptor (full length human TSHR) (human) (UniProt P16473)", "assay": "competition ELISA: inhibition of M22 Fab-peroxidase (competitor) binding to TSHR coated wells; test sample at 1 µg/mL diluted in assay buffer"}, "[17]": {"molecular_target": "TSH receptor (full length human TSHR) (human) (UniProt P16473)", "assay": "competition ELISA: inhibition of M22 Fab-peroxidase (competitor) binding to TSHR coated wells; test sample at 0.01 µg/mL diluted in HBD serum pool"}, "[18]": {"molecular_target": "human thyroid stimulating hormone receptor (TSHR), full length (human) (UniProt P16473)", "assay": "125I-K1-18 Fab competition, TSHR coated tubes; 10 µg/mL in assay buffer"}, "[19]": {"molecular_target": "TSH receptor (TSHR) coated on tubes (human) (UniProt P16473)", "assay": "inhibition of 125I-K1-70 IgG binding to TSHR coated tubes; sample 1 µg/mL in assay buffer"}, "[20]": {"molecular_target": "TSH receptor (TSHR) coated on tubes (human) (UniProt P16473)", "assay": "inhibition of 125I-K1-70 IgG binding to TSHR coated tubes; sample 10 µg/mL in assay buffer"}, "[21]": {"molecular_target": "TSH receptor (TSHR) coated on tubes (human) (UniProt P16473)", "assay": "inhibition of 125I-K1-70 IgG binding to TSHR coated tubes; sample 100 µg/mL in HBD serum pool"}, "[22]": {"molecular_target": "thyroid stimulating hormone receptor (full length human TSHR) (human) (UniProt P16473)", "assay": "ELISA, inhibition of TSH-biotin binding to TSHR coated wells; 1 µg/mL, diluted in assay buffer"}, "[23]": {"molecular_target": "thyroid stimulating hormone receptor (full length human TSHR) (human) (UniProt P16473)", "assay": "ELISA, inhibition of TSH-biotin binding to TSHR coated wells; 10 µg/mL, diluted in assay buffer"}, "[24]": {"molecular_target": "thyroid stimulating hormone receptor (full length human TSHR) (human) (UniProt P16473)", "assay": "ELISA, inhibition of TSH-biotin binding to TSHR coated wells; 10 µg/mL, diluted in HBD serum pool"}, "[25]": {"molecular_target": "TSH receptor (TSHR), full length human, coated on tubes (human) (UniProt P16473)", "assay": "inhibition of 125I-K1-18 IgG (competitor) binding to TSHR coated tubes; test sample at 0.01 µg/mL in assay buffer"}, "[26]": {"molecular_target": "TSH receptor (TSHR), full length human, coated on tubes (human) (UniProt P16473)", "assay": "inhibition of 125I-K1-18 IgG (competitor) binding to TSHR coated tubes; test sample at 10 µg/mL in HBD serum pool"}, "[27]": {"molecular_target": "thyroid stimulating hormone receptor (full length human TSHR) (human) (UniProt P16473)", "assay": "ELISA: inhibition of M22 Fab-peroxidase (competitor) binding to TSHR coated wells; 1 µg/mL, diluted in HBD serum pool"}}, "data": [{"molecule": "M22 IgG (antibody)", "values": [{"measurement": "% inhibition of TSH-biotin binding", "setting": "[1]", "result": -0.5, "unit": "%"}]}, {"molecule": "5B3 IgG (antibody)", "values": [{"measurement": "% inhibition of TSH stimulation; 5B3 10 µg/mL", "setting": "[2]", "result": 15, "unit": "%"}, {"measurement": "% inhibition of TSH stimulation; 5B3 100 µg/mL", "setting": "[2]", "result": 4, "unit": "%"}, {"measurement": "Cyclic AMP produced; 5B3 10 µg/mL + TSH 3 ng/mL", "setting": "[2]", "result": 50.7, "unit": "pmol/mL"}, {"measurement": "Cyclic AMP produced; 5B3 100 µg/mL + TSH 3 ng/mL", "setting": "[2]", "result": 57.6, "unit": "pmol/mL"}, {"measurement": "Mutated/wild type (%) of cyclic AMP produced; 5B3 10 µg/mL + TSH 3 ng/mL", "setting": "[2]", "result": 75, "unit": "%"}, {"measurement": "Mutated/wild type (%) of cyclic AMP produced; 5B3 100 µg/mL + TSH 3 ng/mL", "setting": "[2]", "result": 79, "unit": "%"}, {"measurement": "Cyclic AMP produced; 5B3 10 µg/mL + TSH 3 ng/mL", "setting": "[3]", "result": 67.7, "unit": "pmol/mL"}, {"measurement": "Cyclic AMP produced; 5B3 100 µg/mL + TSH 3 ng/mL", "setting": "[3]", "result": 72.8, "unit": "pmol/mL"}, {"measurement": "Inhibition of binding (%)", "setting": "[4]", "result": -3.9, "unit": "%"}, {"measurement": "% inhibition of TSH-biotin binding", "setting": "[5]", "result": 0.9, "unit": "%"}, {"measurement": "% inhibition of TSH-biotin binding", "setting": "[6]", "result": 8.6, "unit": "%"}, {"measurement": "Inhibition of binding (%)", "setting": "[7]", "result": 6.3, "unit": "%"}, {"measurement": "Inhibition of binding (%)", "setting": "[8]", "result": -3.8, "unit": "%"}, {"measurement": "Inhibition of binding (%)", "setting": "[9]", "result": -0.1, "unit": "%"}]}, {"molecule": "9D33 IgG (antibody)", "values": [{"measurement": "Inhibition of binding (%)", "setting": "[10]", "result": 48, "unit": "%"}, {"measurement": "Inhibition of binding (%)", "setting": "[11]", "result": 37.2, "unit": "%"}, {"measurement": "Inhibition of binding (%)", "setting": "[12]", "result": 15.3, "unit": "%"}, {"measurement": "Inhibition of binding (%)", "setting": "[13]", "result": 77.3, "unit": "%"}, {"measurement": "Inhibition of binding (%)", "setting": "[14]", "result": 66.5, "unit": "%"}, {"measurement": "Inhibition of binding (%)", "setting": "[15]", "result": 33.8, "unit": "%"}, {"measurement": "Inhibition of binding (%)", "setting": "[16]", "result": 60.1, "unit": "%"}, {"measurement": "Inhibition of binding (%)", "setting": "[17]", "result": 6.2, "unit": "%"}]}, {"molecule": "B1", "values": [{"measurement": "Inhibition of binding (%)", "setting": "[18]", "result": 63.8, "unit": "%"}, {"measurement": "Inhibition of binding (%)", "setting": "[19]", "result": 56.4, "unit": "%"}, {"measurement": "Inhibition of binding (%)", "setting": "[20]", "result": 84.8, "unit": "%"}, {"measurement": "Inhibition of binding (%)", "setting": "[21]", "result": 68.5, "unit": "%"}, {"measurement": "Inhibition of binding (%)", "setting": "[22]", "result": 31.4, "unit": "%"}, {"measurement": "Inhibition of binding (%)", "setting": "[23]", "result": 37.8, "unit": "%"}, {"measurement": "Inhibition of binding (%)", "setting": "[24]", "result": 37.4, "unit": "%"}, {"measurement": "Inhibition of binding (%)", "setting": "[25]", "result": 11.7, "unit": "%"}, {"measurement": "Inhibition of binding (%)", "setting": "[26]", "result": 46.7, "unit": "%"}, {"measurement": "Inhibition of binding (%)", "setting": "[27]", "result": 7.8, "unit": "%"}]}]}
